Measured values reported in publication PMC10387068.

Tests used:
[1] = target: heterotrimeric Gq 4A (Gαq 4A with Venus(1-155)-β1 and Venus(156-239)-γ2), P50148;P62873;P59768; assay: BRET assay (receptor-Nluc and Venus-tagged βγ subunits); details: values normalized to cells transfected with the same FZD5-Nluc construct but no Gq 4A; parent: est. 111; read off a plot
[2] = target: DEP-Venus (isolated DEP domain of human DVL2 tagged with mVenus) (UniProt O14641); assay: direct BRET titration; details: HEK293A cells, constant receptor-Nluc plasmid, increasing DEP-Venus plasmid, read off a plot; for other: BRETmax: parent: est. 0.23; for other: log BRET50: parent: est. 2.6

Substance | response [1] [% BRET] | other: BRETmax [2] | other: log BRET50 [2]
FZD5-Nluc (wild-type human Frizzled-5, C-terminally tagged with Nanoluciferase) (from UniProt Q13467) F4×45A | 102 | 0.14 | 3.1
FZD5-Nluc (wild-type human Frizzled-5, C-terminally tagged with Nanoluciferase) (from UniProt Q13467) L6×52A | 109 | 0.22 | 2.7
FZD5-Nluc (wild-type human Frizzled-5, C-terminally tagged with Nanoluciferase) (from UniProt Q13467) V3×44A | 107 | 0.2 | 2.5
FZD5-Nluc (wild-type human Frizzled-5, C-terminally tagged with Nanoluciferase) (from UniProt Q13467) L3×52A | 103 | 0.18 | 2.8
FZD5-Nluc (wild-type human Frizzled-5, C-terminally tagged with Nanoluciferase) (from UniProt Q13467) V45×52A | 105 | 0.19 | 2.5
FZD5-Nluc (wild-type human Frizzled-5, C-terminally tagged with Nanoluciferase) (from UniProt Q13467) G6×34A | 108 | 0.23 | 2.4
FZD5-Nluc (wild-type human Frizzled-5, C-terminally tagged with Nanoluciferase) (from UniProt Q13467) W8×54A | 105 | 0.19 | 2.9
FZD5-Nluc (wild-type human Frizzled-5, C-terminally tagged with Nanoluciferase) (from UniProt Q13467) C2×50A | 101 | 0.12 | 2.8
FZD5-Nluc (wild-type human Frizzled-5, C-terminally tagged with Nanoluciferase) (from UniProt Q13467) M7×44A | 107 | 0.22 | 2.2
FZD5-Nluc (wild-type human Frizzled-5, C-terminally tagged with Nanoluciferase) (from UniProt Q13467) F3×29A | 108 | 0.19 | 2.5
FZD5-Nluc (wild-type human Frizzled-5, C-terminally tagged with Nanoluciferase) (from UniProt Q13467) W6×61A | 102 | 0.14 | 2.7
FZD5-Nluc (wild-type human Frizzled-5, C-terminally tagged with Nanoluciferase) (from UniProt Q13467) Y2×39A | 108 | 0.17 | 3.4
FZD5-Nluc (wild-type human Frizzled-5, C-terminally tagged with Nanoluciferase) (from UniProt Q13467) T1×53A | 106 | 0.19 | 3.1
FZD5-Nluc (wild-type human Frizzled-5, C-terminally tagged with Nanoluciferase) (from UniProt Q13467) W7×55A | 111 | 0.19 | 3.4
FZD5-Nluc (wild-type human Frizzled-5, C-terminally tagged with Nanoluciferase) (from UniProt Q13467) Y2×51A | 101 | 0.15 | 2.7
FZD5-Nluc (wild-type human Frizzled-5, C-terminally tagged with Nanoluciferase) (from UniProt Q13467) L5×62A | 113 | 0.24 | 2.4
FZD5-Nluc (wild-type human Frizzled-5, C-terminally tagged with Nanoluciferase) (from UniProt Q13467) W3×43A | 108 | 0.22 | 2.6
FZD5-Nluc (wild-type human Frizzled-5, C-terminally tagged with Nanoluciferase) (from UniProt Q13467) G5×65A | 115 | 0.25 | 2.4
FZD5-Nluc (wild-type human Frizzled-5, C-terminally tagged with Nanoluciferase) (from UniProt Q13467) Y6×53A | 100 | 0.13 | 3.1
FZD5-Nluc (wild-type human Frizzled-5, C-terminally tagged with Nanoluciferase) (from UniProt Q13467) M3×37A | 103 | 0.16 | 3
FZD5-Nluc (wild-type human Frizzled-5, C-terminally tagged with Nanoluciferase) (from UniProt Q13467) M6×30A | 111 | 0.21 | 3.2
FZD5-Nluc (wild-type human Frizzled-5, C-terminally tagged with Nanoluciferase) (from UniProt Q13467) G5×58A | 106 | 0.21 | 2.5
FZD5-Nluc (wild-type human Frizzled-5, C-terminally tagged with Nanoluciferase) (from UniProt Q13467) R6×32A | 106 | 0.15 | 4.1
FZD5-Nluc (wild-type human Frizzled-5, C-terminally tagged with Nanoluciferase) (from UniProt Q13467) L5×48A | 102 | 0.16 | 2.7
FZD5-Nluc (wild-type human Frizzled-5, C-terminally tagged with Nanoluciferase) (from UniProt Q13467) T1×50A | 111 | 0.22 | 3.2
FZD5-Nluc (wild-type human Frizzled-5, C-terminally tagged with Nanoluciferase) (from UniProt Q13467) Y6×51A | 106 | 0.2 | 2.5
